Experimental data from patent publication US20260070976A1.
Where a chain is given by its changes, count along the chain named.

B1: X20 (antibody, human IgG4, V domains shown)
VH: QVQLVQSGAEVKKPGSSVKVSCKASGYNFLHYDVNWVRQAPGQGLEWMGGIIPIFGTANYAQKFQGRVTITADESTSTAYMELSSLRSEDTAVYYCATAVGAGWFDPWGQGTLVTVSS
VL: DIVMTQSPDSLAVSLGERATINCKSSQSVYFSENNKNYLAWYQQKPGQPPKLLIYWASTRESGVPDRFSGSGSGTDFTLTISSLQAEDVAVYYCQQYYEEPYTFGQGTRLEIK
B2: X11 (antibody, human IgG4, V domains shown)
VH: B1 VH with H31N, A99G
VL: B1 VL
B3: X17 (antibody, human IgG4, V domains shown)
VH: B1 VH with P107T
VL: B1 VL with Y30F, S32D, Y98F
B4: X14 (antibody, human IgG4, V domains shown)
VH: B1 VH with P107T
VL: B1 VL with E33P, Y98F
B5: X18 (antibody, human IgG4, V domains shown)
VH: B1 VH with P107T
VL: B1 VL with Y30W, S32D, E33P, Y98F
B6: X7 (antibody, human IgG4, V domains shown)
VH: B1 VH with H31N, A99G
VL: B1 VL with Y30F, S32D, Y98F
B7: X4 (antibody, human IgG4, V domains shown)
VH: B1 VH with H31N, A99G
VL: B1 VL with E33P, Y98F

How the values were obtained:
[1] = target: recombinant cynomolgus PILRB (cynomolgus monkey); experiment: SPR, Carterra LSA, antibody amine-coupled, kinetic fit
[2] = target: recombinant cynomolgus PILRB (cynomolgus monkey); experiment: SPR, Biacore T200, antibody captured by anti-Fab

| Kd [1] | Kd [2] | Binder |
| --- | --- | --- |
| 100 pM |  | B1 |
| 500 pM | 400 pM | B2 |
| 300 pM |  | B3 |
| 200 pM |  | B4 |
| 300 pM |  | B5 |
| 500 pM |  | B6 |
| 300 pM |  | B7 |
